Data taken from article PMC5714123, “The SMAD3 transcription factor binds complex RNA structures with high affinity”.

What was measured:
SMAD3 MH1 [1] = biological target: T1, SMAD3 MH1 (Homo sapiens, UniProt P84022 1-132); assay: EMSA; Hill 1.8; EMSA: 25 mM Tris-HCl (pH not given for binding buffer; RNA stock pH 7.5), 115 mM KCl, 1 mM MgCl2, 1 mM DTT, 20 ng/ul poly I:C, 0.1 mg/ml BSA, 10% glycerol, on ice 2 h; 0.5x TBE gel at 4 C; conditions: protein: recombinant, tags: 6xHis-SUMO cleaved
SMAD3 MH1 [2] = biological target: T1, SMAD3 MH1; assay: EMSA; Hill 1.9; EMSA: 25 mM Tris-HCl (pH not given for binding buffer; RNA stock pH 7.5), 115 mM KCl, 1 mM MgCl2, 1 mM DTT, 20 ng/ul poly I:C, 0.1 mg/ml BSA, 10% glycerol, on ice 2 h; 0.5x TBE gel at 4 C; conditions: protein: recombinant, tags: 6xHis-SUMO cleaved
SMAD3 MH1 [3] = biological target: T1, SMAD3 MH1; assay: EMSA; Hill 3.6; EMSA: 25 mM Tris-HCl (pH not given for binding buffer; RNA stock pH 7.5), 115 mM KCl, 1 mM MgCl2, 1 mM DTT, 20 ng/ul poly I:C, 0.1 mg/ml BSA, 10% glycerol, on ice 2 h; 0.5x TBE gel at 4 C; conditions: protein: recombinant; tags: 6xHis-SUMO cleaved; label: 5' 32P (EMSA); hairpin
SMAD3 MH1 [4] = biological target: T1, SMAD3 MH1; assay: EMSA; Hill 1.7; EMSA: 25 mM Tris-HCl (pH not given for binding buffer; RNA stock pH 7.5), 115 mM KCl, 1 mM MgCl2, 1 mM DTT, 20 ng/ul poly I:C, 0.1 mg/ml BSA, 10% glycerol, on ice 2 h; 0.5x TBE gel at 4 C; conditions: protein: recombinant, tags: 6xHis-SUMO cleaved
SMAD3 MH1 [5] = biological target: T1, SMAD3 MH1; assay: EMSA; Hill 2.5; EMSA: 25 mM Tris-HCl (pH not given for binding buffer; RNA stock pH 7.5), 115 mM KCl, 1 mM MgCl2, 1 mM DTT, 20 ng/ul poly I:C, 0.1 mg/ml BSA, 10% glycerol, on ice 2 h; 0.5x TBE gel at 4 C; conditions: protein: recombinant; tags: 6xHis-SUMO cleaved; label: 5' 32P; hairpin with 2x3 internal loop
SMAD3 MH1 [6] = biological target: T1, SMAD3 MH1; assay: EMSA; Hill 2.1; EMSA: 25 mM Tris-HCl (pH not given for binding buffer; RNA stock pH 7.5), 115 mM KCl, 1 mM MgCl2, 1 mM DTT, 20 ng/ul poly I:C, 0.1 mg/ml BSA, 10% glycerol, on ice 2 h; 0.5x TBE gel at 4 C; conditions: protein: recombinant; tags: 6xHis-SUMO cleaved; label: 5' 32P; hairpin with 6x3 internal loop
SMAD3 MH1 [7] = biological target: T1, SMAD3 MH1; assay: EMSA; Hill 3.2; EMSA: 25 mM Tris-HCl (pH not given for binding buffer; RNA stock pH 7.5), 115 mM KCl, 1 mM MgCl2, 1 mM DTT, 20 ng/ul poly I:C, 0.1 mg/ml BSA, 10% glycerol, on ice 2 h; 0.5x TBE gel at 4 C; conditions: protein: recombinant; tags: 6xHis-SUMO cleaved; label: 5' 32P; hairpin with single-stranded flanks
SMAD3 MH1 [8] = biological target: T1, SMAD3 MH1; assay: EMSA; Hill 2.7; EMSA: 25 mM Tris-HCl (pH not given for binding buffer; RNA stock pH 7.5), 115 mM KCl, 1 mM MgCl2, 1 mM DTT, 20 ng/ul poly I:C, 0.1 mg/ml BSA, 10% glycerol, on ice 2 h; 0.5x TBE gel at 4 C; conditions: protein: recombinant; tags: 6xHis-SUMO cleaved; label: 5' 32P; hairpin
SMAD3 MH1 [9] = biological target: T1, SMAD3 MH1; assay: EMSA; Hill 3.0; EMSA: 25 mM Tris-HCl (pH not given for binding buffer; RNA stock pH 7.5), 115 mM KCl, 1 mM MgCl2, 1 mM DTT, 20 ng/ul poly I:C, 0.1 mg/ml BSA, 10% glycerol, on ice 2 h; 0.5x TBE gel at 4 C; conditions: protein: recombinant; tags: 6xHis-SUMO cleaved; label: 5' 32P; hairpin
SMAD3 MH1 [10] = biological target: T1, SMAD3 MH1; assay: EMSA; Hill 3.1; EMSA: 25 mM Tris-HCl (pH not given for binding buffer; RNA stock pH 7.5), 115 mM KCl, 1 mM MgCl2, 1 mM DTT, 20 ng/ul poly I:C, 0.1 mg/ml BSA, 10% glycerol, on ice 2 h; 0.5x TBE gel at 4 C; conditions: protein: recombinant; tags: 6xHis-SUMO cleaved; label: 5' 32P; hairpin
SMAD3 MH1 [11] = biological target: T1, SMAD3 MH1; assay: EMSA; Hill 3.4; EMSA: 25 mM Tris-HCl (pH not given for binding buffer; RNA stock pH 7.5), 115 mM KCl, 1 mM MgCl2, 1 mM DTT, 20 ng/ul poly I:C, 0.1 mg/ml BSA, 10% glycerol, on ice 2 h; 0.5x TBE gel at 4 C; conditions: protein: recombinant; tags: 6xHis-SUMO cleaved; label: 5' 32P; hairpin
SMAD3 MH1 [12] = biological target: T1, SMAD3 MH1; assay: EMSA; Hill 1.6; EMSA: 25 mM Tris-HCl (pH not given for binding buffer; RNA stock pH 7.5), 115 mM KCl, 1 mM MgCl2, 1 mM DTT, 20 ng/ul poly I:C, 0.1 mg/ml BSA, 10% glycerol, on ice 2 h; 0.5x TBE gel at 4 C; conditions: protein: recombinant; tags: 6xHis-SUMO cleaved; label: 5' 32P; hairpin
SMAD3 MH1 [13] = biological target: T1, SMAD3 MH1; assay: EMSA; Hill 2.2; EMSA: 25 mM Tris-HCl (pH not given for binding buffer; RNA stock pH 7.5), 115 mM KCl, 1 mM MgCl2, 1 mM DTT, 20 ng/ul poly I:C, 0.1 mg/ml BSA, 10% glycerol, on ice 2 h; 0.5x TBE gel at 4 C; conditions: protein: recombinant; tags: 6xHis-SUMO cleaved; label: 5' 32P; hairpin with 1x5 internal loop
SMAD3 MH1 [14] = biological target: T1, SMAD3 MH1; assay: EMSA; Hill 1.1; EMSA: 25 mM Tris-HCl (pH not given for binding buffer; RNA stock pH 7.5), 115 mM KCl, 1 mM MgCl2, 1 mM DTT, 20 ng/ul poly I:C, 0.1 mg/ml BSA, 10% glycerol, on ice 2 h; 0.5x TBE gel at 4 C; conditions: protein: recombinant; tags: 6xHis-SUMO cleaved; label: 5' 32P; structured, multi-loop
[15] = label: 5' 32P, hairpin with 6x3 internal loop

T1 sequence (P84022 1-132): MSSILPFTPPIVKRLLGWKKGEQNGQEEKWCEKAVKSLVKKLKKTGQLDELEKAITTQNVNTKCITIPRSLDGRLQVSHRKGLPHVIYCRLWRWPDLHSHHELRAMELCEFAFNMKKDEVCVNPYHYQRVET

## GGGUCUCGUAUUGCAGAAAUGACUUCGGUCAAAUCAAGAGAGAC (structured_RNA) [17b D4a truncation 2]
SMAD3 MH1 [1]; [15]
  Kd: 480 ± 80 nM

B1: 19 dsDNA with 1 SBE (dsDNA)
DNA 1: GTATGTCTCAGATGAA
DNA 2: TTCATCTGAGACATAC
SMAD3 MH1 [2]; label: 5' 32P on one strand, blunt
  Kd: 190 ± 20 nM

B2: 16 30-bp hairpin (structured_RNA)
RNA: GGAUCGAUCGAUCGAUCGGCAUCGAUCGGCUUCGGCCGAUCGAUGCCGAUCGAUCGAUCGAUCC
SMAD3 MH1 [3]
  Kd: 4000 ± 200 nM

B3: 17a D4a truncation 1 (structured_RNA)
RNA: GGGUCUCGUAUUGCAGAAAUGACAACAUCUUUCGAGGUGGUCAAAUCAAGCGAGAC
SMAD3 MH1 [4]; [15]
  Kd: 340 ± 70 nM

## GGUCUGGGCGCAGCGCAAGCUGACGGUACAGGCC (structured_RNA) [21 RRE]
SMAD3 MH1 [5]
  Kd: 3000 ± 300 nM

B4: 17d D4a isolated terminal loop (structured_RNA)
RNA: GGGUCUCGUAUUGCAGAAAUGACACAUCUUGCCCGUAACCAAUCGGGUAAGGUGUGUCAAAUCAAUGCGAGAC
SMAD3 MH1 [6]
  Kd: 570 ± 20 nM

B5: 17 Group II intron D4A (structured_RNA)
RNA: GGGGUCUCGUAUUGCAGAAAUGACAACAUCUGCCGUAACCAAUCGGGUAAAAGGUGGUCAAAUCAAGCGAGAC
SMAD3 MH1 [4]; label: 5' 32P (EMSA), hairpin with 1x5 and 6x3 internal loops
  Kd: 190 ± 10 nM

B6: 18 ai5-gamma D3 (structured_RNA)
RNA: GGGUAUAAAAAGCUAAUGCCAUAUUGUAAUGAUAUGGAUAAGAAUUAUUAUUCUAAAGAUGAAAAUCUGCUAACUUAUACUG
SMAD3 MH1 [1]; label: 5' 32P (EMSA), four-way junction with bulged stem
  Kd: 190 ± 30 nM

B7: 10 hsa-miR-21 extended (structured_RNA)
RNA: GGGUGUUUUGCCUACCAUCGUGACAUCUCCAUGGCUGUACCACCUUGUCGGGUAGCUUAUCAGACUGAUGUUGACUGUUGAAUCUCAUGGCAACACCAGUCGAUGGGCUGUCUGACAUUUUGGUAUCUUUCAUCUGACCAUCCAUAUCCAAUGUUCUCAG
SMAD3 MH1 [7]
  Kd: 700 ± 60 nM

B8: 3c hsa-miR-199a-1 stem loop (structured_RNA)
RNA: GGCCAACCCAGUGUUCAGACUACCUGUUCAGGAGGCUCUCAAUGUGUACAGUAGUCUGCACAUUGGUUAGGCC
SMAD3 MH1 [2]; label: 5' 32P, hairpin
  Kd: 1250 ± 50 nM

## GGACGUGAGGUAGUAUGUAAGCGUUCGCGCUUUCAACUAACUCGCGUCC (structured_RNA) [9a cel-miR-84 central stem]
SMAD3 MH1 [8]
  Kd: 2900 ± 100 nM

## GAUACUUGAAACUGUAAGGUUGGCGUAUC (structured_RNA) [20 NF-kB aptamer]
SMAD3 MH1 [1]; label: 5' 32P, hairpin with 4x3 internal loop
  Kd: 4400 ± 600 nM

## GGACGUACUGCAGACAGUGGGCGUUCGCGCGUACGUCUGUGGGUACGUCC (structured_RNA) [6a hsa-miR-509 central stem]
SMAD3 MH1 [1]; label: 5' 32P, hairpin
  Kd: 2100 ± 300 nM

## GGACGUACUGCCAGAAGUGGGCGUUCGCGCGUACUCUGGUGGGUACGUCC (structured_RNA) [6b hsa-miR-509 central stem dSBE]
SMAD3 MH1 [9]
  Kd: 3000 ± 300 nM

## GGACGCUUAUCAGACUGAUGUUGUUCGCAACACCAGUCGAUGGGCGUCC (structured_RNA) [1a hsa-miR-21 central stem]
SMAD3 MH1 [10]
  Kd: 2500 ± 100 nM

## GGACGCUUAUAAAACUGAUGUUGUUCGCAACACCAGUUUAUGGGCGUCC (structured_RNA) [1b hsa-miR-21 central stem dSBE]
SMAD3 MH1 [11]
  Kd: 2700 ± 100 nM

## GGGUCUCGUAUUGCAGAAAUAAAUCAAGCGAGAC (structured_RNA) [17c D4a truncation 3]
SMAD3 MH1 [12]
  Kd: 1500 ± 300 nM

B9: 17e D4a isolated apical loop (structured_RNA)
RNA: GGGUCUCGUAUUGCAGAUGACACAUCUGCCGUAACCAAUCGGGUAAAAGGUGUGUCAUCUGCAAUGCGAGAC
SMAD3 MH1 [13]
  Kd: 400 ± 10 nM

B10: 11 VAI (structured_RNA)
RNA: GGGCACUCUUCCGUGGUCUGGUGGAUAAAUUCGCAAGGGUAUCAUGGCGGACGACCGGGGUUCGAACCCCGGAUCCGGCCGUCCGCCGUGAUCCAUGCGGUUACCGCCCGCGUGUCGAACCCAGGUGUGCGACGUCAGACAACGGGGGAGCGCUC
SMAD3 MH1 [14]
  Kd: 110 ± 20 nM

B11: 9c cel-miR-84 stem loop (structured_RNA)
RNA: GGCAUCUGAGGUAGUAUGUAAUAUUGUAGACUGUCUAUAAUGUCCACAAUGUUUCAACUAACUCGGCUGCC
SMAD3 MH1 [8]
  Kd: 1600 ± 100 nM
